The labels stand for the following.
B1: 04H1654-G1m/04L1612-lam1 (antibody, human IgG1, lambda)
heavy: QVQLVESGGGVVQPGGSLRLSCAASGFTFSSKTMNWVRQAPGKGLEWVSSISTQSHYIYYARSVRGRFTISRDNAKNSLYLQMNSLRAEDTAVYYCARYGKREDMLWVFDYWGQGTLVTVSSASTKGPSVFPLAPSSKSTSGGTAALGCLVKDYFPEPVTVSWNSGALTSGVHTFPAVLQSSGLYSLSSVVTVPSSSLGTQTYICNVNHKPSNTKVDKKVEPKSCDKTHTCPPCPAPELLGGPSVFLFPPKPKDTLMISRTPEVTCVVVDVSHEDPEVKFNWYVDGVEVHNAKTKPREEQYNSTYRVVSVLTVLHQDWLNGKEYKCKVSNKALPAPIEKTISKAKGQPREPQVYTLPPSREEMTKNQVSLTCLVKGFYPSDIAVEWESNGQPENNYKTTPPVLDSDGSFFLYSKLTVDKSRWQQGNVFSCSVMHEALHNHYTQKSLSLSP
light: QSALTQPPSASGSPGQSVTISCEGPSTGVGDYTYVHWYQQHPGKAPKLMIYFTSKKPSGVPDRFSGSKSGNTASLTVSGLQAEDEADYYCQTYAAPLGPMFGGGTKLTVLGQPKAAPSVTLFPPSSEELQANKATLVCLISDFYPGAVTVAWKADSSPVKAGVETTTPSKQSNNKYAASSYLSLTPEQWKSHRSYSCQVTHEGSTVEKTVAPTECS
B2: 04H1656-G1m/04L1610-lam1 (antibody, human IgG1, lambda)
heavy: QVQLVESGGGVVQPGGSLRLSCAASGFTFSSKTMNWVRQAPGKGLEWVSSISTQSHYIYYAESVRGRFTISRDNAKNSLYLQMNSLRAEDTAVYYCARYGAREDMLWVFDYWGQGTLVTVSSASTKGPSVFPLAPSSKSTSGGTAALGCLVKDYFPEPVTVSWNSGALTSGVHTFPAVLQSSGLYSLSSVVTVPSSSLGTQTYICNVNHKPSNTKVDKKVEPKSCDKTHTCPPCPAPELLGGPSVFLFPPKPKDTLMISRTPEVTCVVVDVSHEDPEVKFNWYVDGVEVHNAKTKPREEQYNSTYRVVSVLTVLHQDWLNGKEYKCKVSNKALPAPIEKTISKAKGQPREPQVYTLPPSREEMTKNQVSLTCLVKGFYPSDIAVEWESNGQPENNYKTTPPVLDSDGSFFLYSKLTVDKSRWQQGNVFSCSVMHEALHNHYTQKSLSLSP
light: B1 light with T33N, Y34W
B3: 04H1389-G1m/04L1615-k0MT (antibody, human IgG1, kappa)
heavy: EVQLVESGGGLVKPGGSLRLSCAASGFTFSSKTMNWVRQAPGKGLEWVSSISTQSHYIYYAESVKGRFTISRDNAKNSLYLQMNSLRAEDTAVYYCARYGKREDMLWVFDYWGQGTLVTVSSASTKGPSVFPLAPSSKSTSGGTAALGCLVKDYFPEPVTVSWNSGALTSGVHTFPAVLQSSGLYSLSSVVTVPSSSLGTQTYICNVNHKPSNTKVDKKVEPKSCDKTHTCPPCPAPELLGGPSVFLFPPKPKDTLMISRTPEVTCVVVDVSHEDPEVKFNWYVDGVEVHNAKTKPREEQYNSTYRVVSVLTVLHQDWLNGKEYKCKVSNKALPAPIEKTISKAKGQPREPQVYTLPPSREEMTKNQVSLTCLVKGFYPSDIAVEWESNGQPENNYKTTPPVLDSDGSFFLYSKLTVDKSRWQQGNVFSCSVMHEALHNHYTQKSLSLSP
light: DIVMTQSPLSLPVTPGEPASISCQGPSTGVGDYNYVHWYQQKPGQAPRLLIYFTSKKPSGVPDRFSGSGSGTDFTLKISRVEAEDVGVYYCQTYAAPLGPMFGQGTKLEIKRTVAAPSVFIFPPSDEQLKSGTASVVCLLNNFYPREAKVQWKVDNALQSGNSQESVTEQDSKDSTYSLSSTLTLSKADYEKHKVYACEVTHQGLSSPVTKSFNRGEC
B4: 04H1389-mFa55/04L1615-mk1 (antibody, mouse IgG2a, kappa)
heavy: EVQLVESGGGLVKPGGSLRLSCAASGFTFSSKTMNWVRQAPGKGLEWVSSISTQSHYIYYAESVKGRFTISRDNAKNSLYLQMNSLRAEDTAVYYCARYGKREDMLWVFDYWGQGTLVTVSSAKTTAPSVYPLAPVCGDTTGSSVTLGCLVKGYFPEPVTLTWNSGSLSSGVHTFPAVLQSDLYTLSSSVTVTSSTWPSQSITCNVAHPASSTKVDKKIEPRGPTIKPCPPCKCPAPNLLGGPDVFIFPPKIKDVLMISLSPIVTCVVVDVSEDDPDVQISWFVNNVEVHTAQTQTHREDYNSTLRVVSALPIQHQDWMSGKEFKCKVNNKDLPAPIERTISKPKGSVRAPQVYVLPPPEEEMTKKQVTLTCMVTDFMPEDIYVEWTNNGKTELNYKNTEPVLDSDGSYFMYSKLRVEKKNWVERNSYSCSVVHEGLHNHHTTKSFSRTPGK
light: DIVMTQSPLSLPVTPGEPASISCQGPSTGVGDYNYVHWYQQKPGQAPRLLIYFTSKKPSGVPDRFSGSGSGTDFTLKISRVEAEDVGVYYCQTYAAPLGPMFGQGTKLEIKRADAAPTVSIFPPSSEQLTSGGASVVCFLNNFYPKDINVKWKIDGSERQNGVLNSWTDQDSKDSTYSMSSTLTLTKDEYERHNSYTCEATHKTSTSPIVKSFNRNEC
notes: Mouse constant regions mFa55 and mk1; also called SW1615-mFa55
B5: 04H1654-mFa55m2P1/04L1610-ml0r (antibody, mouse IgG2a)
heavy: B4 heavy with E1Q, L11V, K13Q, E62R, K65R, D404R
light: QSALTQPPSASGSPGQSVTISCEGPSTGVGDYNWVHWYQQHPGKAPKLMIYFTSKKPSGVPDRFSGSKSGNTASLTVSGLQAEDEADYYCQTYAAPLGPMFGGGTKLTVLGQPKSSPSVTLFPPSSEELETNKATLVCTITDFYPGVVTVDWKVDGTPVTQGMETTQPSKQSNNKYMASSYLTLTARAWERHSSYSCQVTHEGHTVEKSLSRADCS
notes: Mouse constant regions; also called one arm of SW1610-mFa55
B6: 04H1656-mFa55m2N1/04L1610-ml0r (antibody, mouse IgG2a)
heavy: B4 heavy with E1Q, L11V, K13Q, K65R, K101A, K414E
light: B5 light
notes: Mouse constant regions; also called other arm of SW1610-mFa55
B7: 04H1654-mFa55m2P1/04L1612-ml0r (antibody, mouse IgG2a)
heavy: B4 heavy with E1Q, L11V, K13Q, E62R, K65R, D404R
light: B5 light with N33T, W34Y
notes: Mouse constant regions; also called one arm of SW1612-mFa55
B8: 04H1656-mFa55m2N1/04L1612-ml0r (antibody, mouse IgG2a)
heavy: B4 heavy with E1Q, L11V, K13Q, K65R, K101A, K414E
light: B5 light with N33T, W34Y
notes: Mouse constant regions; also called other arm of SW1612-mFa55
B9: H240-Kn496/L73-k0//H240-Hl516/L73-k0 (antibody)
heavy 1: QDQLVQSGAEVKKPGASVKVSCKASGFNIKDTYIQWVRQAPGQGLEWMGRIDPLRKQTKYREKFEGRVTITADTSTNTAYMELSSLRSEDTAVYYCVRSGREFDYWGQGTLVTVSSASTKGPSVFPLAPSSKSTSGGTAALGCLVKDYFPEPVTVSWNSGALTSGVHTFPAVLQSSGLYSLSSVVTVPSSSLGTQTYICNVNHKPSNTKVDKKVEPKSCDKTHTCPPCPAPEFQWGPMVFLFPPKPKDVLMISRTPEVTCVVVDVSDEEPEVKFNWYVDGVEVHNAKTKPREEQYNATYRVVSVLPVLHQDWLNGKEYKCKVSNKALPAPIEKTISKAKGQPREPQVCTLPPSRDELTKNQVSLWCLVKGFYPSDIAVEWESNGQPENNYKTTPPVLDSDGSFFLYSKLTVDKSRWQQGNVFSCSVMHEALHNHYTQKSLSLSP
heavy 2: QDQLVQSGAEVKKPGASVKVSCKASGFNIKDTYIQWVRQAPGQGLEWMGRIDPLRKQTKYREKFEGRVTITADTSTNTAYMELSSLRSEDTAVYYCVRSGREFDYWGQGTLVTVSSASTKGPSVFPLAPSSKSTSGGTAALGCLVKDYFPEPVTVSWNSGALTSGVHTFPAVLQSSGLYSLSSVVTVPSSSLGTQTYICNVNHKPSNTKVDKKVEPKSCDKTHTCPPCPAPELLGGPSVFLFPPKPKDVLMISRTPEVTCVVVDVSHEEPEVKFNWYVDGVEVHNAKTKPREEQYNATYRVVSVLPVLHQDWLNGKEYKCKVSNDALPAPIEETISKAKGQPREPQVYTLPPSRCELTKNQVSLSCAVKGFYPSDIAVEWESNGQPENNYKTTPPVLDSDGSFFLVSKLTVDKSRWQQGNVFSCSVMHEALHNHYTQKSLSLSP
light: DIQMTQSPSSLSASVGDRVTITCRASQDIHKYIAWYQQKPGQAPRLLIQYTSTLQPGVPSRFSGSGSGTDYTFTISSLQPEDIATYYCLQYEQLRTFGGGTKVEIKRTVAAPSVFIFPPSDEQLKSGTASVVCLLNNFYPREAKVQWKVDNALQSGNSQESVTEQDSKDSTYSLSSTLTLSKADYEKHKVYACEVTHQGLSSPVTKSFNRGEC
notes: also called EGL-ART11; ART11; copies: 1 + 1 + 2

Data on nine molecules can be found in patent publication US20260022175A1 (Chugai, published 2026).

One may read the Kd as a measure of binding affinity in units of concentration. As usually defined, the koff is the first-order rate constant of dissociation. What is called kon is the second-order rate constant of association.

Changes are numbered by the printed parent chain.

For the first experiment, the target named is T1, human CTLA4 (human).
T1 construct: also called hCTLA4; hCTLA4-His-BAP
T1 sequence (chain, as listed by the source limits assumed): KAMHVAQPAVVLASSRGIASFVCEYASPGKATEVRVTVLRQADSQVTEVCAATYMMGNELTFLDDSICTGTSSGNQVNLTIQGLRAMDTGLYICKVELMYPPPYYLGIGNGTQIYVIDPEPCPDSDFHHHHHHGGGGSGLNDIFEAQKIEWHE
Description: SPR Biacore T200, 37C, antibody captured, ATP 10 uM.
Description: (§1) Biacore T200 was used to measure the binding of the generated antibodies to human CTLA4. 20 mM ACES (pH 7.4), 150 mM NaCl, 2 mM MgCl₂, 0.05% Tween 20 with ATP added to the desired concentration was used as the running buffer, and the assay was performed at 37° C. First, Protein G (CALBIOCHEM) was immobilized onto a Series S Sensor Chip CM3 (GE Healthcare), and the antibodies were captured by interacting an antibody solution prepared in an ATP-free running buffer with the chip. Next, by interacting with a human CTLA4 solution prepared in a running buffer containing ATP to the desired concentration, or a human CTLA4 solution prepared in a running buffer containing no ATP, the binding ability of the antibody to human CTLA4 in the presence or absence of ATP was evaluated. Chips were regenerated with 25 mM NaOH and 10 mM Glycine-HCl (pH 1.5), and assay was performed by repeatedly capturing antibodies. The dissociation constant of each antibody for CTLA4 was calculated using Biacore T200 Evaluation Software 2.0. Specifically, the binding rate constant ka (L/mol/s) and the dissociation rate constant kd (1/s) were calculated by global fitting of the sensorgrams obtained by the measurement, using a 1:1 Langmuir binding model. The dissociation constant KD (mol/L) was calculated from those values. Alternatively, the dissociation constant KD (mol/L) was calculated by the steady state model. In addition, the binding amount of CTLA4 per unit amount of antibody was calculated by correcting the amount of CTLA4 bound as calculated from the sensorgram obtained by the assay with the amount of antibody captured onto the chip surface.
As to B1, the Kd is 33 nM.
On the same count and under the same terms, for B2 the value was 19 nM; for B3, 15 nM.

A further experiment concerns the target T2, mouse CTLA4 extracellular region linked with a His-tag (mCTLA4-His) (mouse, UniProt P09793 36-161). Nature of the experiment: SPR Biacore T200, 37C, antibody captured, ATP 1 uM. A general note: SPR reads the build-up and loss of mass on a sensor chip optically.
Description: as §1
(§2) Next, the binding ability of some variants to mouse CTLA4 and cynomolgus monkey CTLA4 was evaluated.
B1 displayed a Kd of 390 nM.
B2: the Kd worked out at 230 nM.
The same measure, in the same setting: for B3 the value was 160 nM.

A further experiment addresses T1, human CTLA4. Nature of the experiment: SPR Biacore T200, 37C, antibody captured, ATP 1 uM.
Description: as §1, §2
B1: binding was put at a Kd of 170 nM.
Still for that read-out and setting: in the case of B2 it was 79 nM; in that of B3, 58 nM.

For the next experiment, the target named is T3, cynomolgus monkey CTLA4 (CyCTLA4-His-BAP) (cynomolgus monkey). Description: SPR Biacore T200, 37C, antibody captured, ATP 1 uM.
T3 sequence (chain, as listed by the source limits assumed): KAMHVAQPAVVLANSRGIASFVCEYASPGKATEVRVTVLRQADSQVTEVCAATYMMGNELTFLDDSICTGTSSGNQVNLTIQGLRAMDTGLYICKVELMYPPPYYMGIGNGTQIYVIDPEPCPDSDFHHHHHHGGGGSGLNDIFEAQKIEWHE
Description: as §1, §2
B1 displayed a Kd of 310 nM.
Same read-out and setting: for B2 the value was 120 nM; for B3, 110 nM.

A further experiment deals with T1, human CTLA4. Nature of the experiment: SPR Biacore T200, 37C, antibody captured, no ATP, steady state model.
Description: Biacore T200 was used to measure the binding of the generated antibodies to human CTLA4. 20 mM ACES (pH 7.4), 150 mM NaCl, 2 mM MgCl₂, 0.05% Tween 20 with ATP added to the desired concentration was used as the running buffer, and the assay was performed at 37° C. First, Protein G (CALBIOCHEM) was immobilized onto a Series S Sensor Chip CM3 (GE Healthcare), and the antibodies were captured by interacting an antibody solution prepared in an ATP-free running buffer with the chip. Next, by interacting with a human CTLA4 solution prepared in a running buffer containing ATP to the desired concentration, or a human CTLA4 solution prepared in a running buffer containing no ATP, the binding ability of the antibody to human CTLA4 in the presence or absence of ATP was evaluated. Chips were regenerated with 25 mM NaOH and 10 mM Glycine-HCl (pH 1.5), and assay was performed by repeatedly capturing antibodies. The dissociation constant of each antibody for CTLA4 was calculated using Biacore T200 Evaluation Software 2.0. Specifically, the binding rate constant ka (L/mol/s) and the dissociation rate constant kd (1/s) were calculated by global fitting of the sensorgrams obtained by the measurement, using a 1:1 Langmuir binding model. The dissociation constant KD (mol/L) was calculated from those values. Alternatively, the dissociation constant KD (mol/L) was calculated by the steady state model.
As to B1, binding was put at a Kd of 4800 nM.
Still for that read-out and setting: for B2 the value was 2200 nM; for B3, 2000 nM.

The target in the next experiment is T1, human CTLA4. Nature of the experiment: SPR, 37C, antibody captured by anti-mouse IgG, ATP 10 uM.
Description: (§3) 20 mM ACES (pH 7.4), 150 mM NaCl, 2 mM MgCl₂, 0.05% Tween 20 with ATP added to the desired concentrations was used as the running buffer, and the assay was performed at 37° C. First, Rabbit Anti-Mouse IgG (Thermo Fisher Scientific) was immobilized onto Series S Sensor Chips CM5 (GE Healthcare), and the antibody was captured onto the chip by interacting an antibody solution prepared in an ATP-free running buffer. Next, the binding ability of the antibody to human CTLA4 in the presence or absence of ATP was evaluated by interacting with a human CTLA4 solution prepared in a running buffer with ATP added to the desired concentration, or a human CTLA4 solution prepared in an ATP-free running buffer. Chips were regenerated with 25 mM NaOH and 10 mM Glycine-HCl (pH 1.5) and assay was performed by repeatedly capturing antibodies. The dissociation constant of each antibody for CTLA4 was calculated using Biacore T200 Evaluation Software 2.0. Specifically, the binding rate constant ka (L/mol/s) and the dissociation rate constant kd (1/s) were calculated by global fitting of the sensorgrams obtained by the measurement using the 1:1 Langmuir binding model, and the dissociation constant KD (mol/L) was calculated from those values.
For the molecule B4, binding was put at a Kd of 15 nM.
The same measure, in the same setting: in the case of B5 it was 17 nM; in that of B6, 13 nM.
Molecule B7 had a Kd of 29 nM.
For B8, the Kd was determined as 20 nM.

For the next experiment, the target named is T1, human CTLA4. Nature of the experiment: SPR, 37C, antibody captured by anti-mouse IgG, ATP 100 uM.
Description: as §3
In turn, B4 returned an equilibrium dissociation constant (Kd) of 8.7 nM.
B5: the affinity, expressed as Kd, was 8.5 nM.
Still for that read-out and setting: for B6 the value was 7.4 nM; for B7, 12 nM.
On the same count and under the same terms, for B8 the value was 10 nM.

A further experiment deals with T1, human CTLA4. Nature of the experiment: SPR Biacore T200, 37C, antibody captured, ADP 10 uM.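 Further: antibodies held on a Protein G CM3 chip, human CTLA4 as analyte in ACES pH 7.4 buffer, rates from a global 1:1 Langmuir fit, Kd from rates or steady state.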
With B1, binding was characterised by a dissociation constant (Kd) of 56 nM, the koff was found to be 0.005 s⁻¹ and the kon worked out at 89000 M⁻¹ s⁻¹.
Consider B2, for which the Kd was 25 nM, the koff was 0.0043 s⁻¹ and the kon came out at 170000 M⁻¹ s⁻¹.
On the same counts, the results for B3 are 17 nM, 0.003 s⁻¹ and 180000 M⁻¹ s⁻¹.

The target of another experiment is T2, mouse CTLA4 extracellular region linked …. Description: SPR Biacore T200, 37C, antibody captured, ATP 10 uM.
Description: as §1, §2
For the molecule B1, the Kd amounted to 48 nM.
The molecule B2 showed a Kd of 37 nM.
On the same count and under the same terms, for B3 the value was 26 nM.

The target of another experiment is T1, human CTLA4. The experiment is described as above. The source holds these as a separate data set.
Description: as §1, §2
As to B1, binding was put at a Kd of 30 nM.
Same read-out and setting: in the case of B2 it was 16 nM; in that of B3, 12 nM.

For another experiment, the target named is T3, cynomolgus monkey CTLA4 …. The experiment is described as above.
Description: as §1, §2
B1: the Kd is 54 nM.
Regarding B2, the Kd came to 26 nM.
The molecule B3 came in with a Kd of 21 nM.

For the next experiment, the target named is T1, human CTLA4. The description is as above. This is another data set of the same source.
Description: as §1
(§4) The binding ability of the generated variants to human CTLA4 in the presence of ADP or AMP was evaluated by Biacore T200 and compared with the binding ability in the presence of ATP.
In turn, B1 came in with a Kd of 36 nM, a koff of 0.0027 s⁻¹ and a kon of 74000 M⁻¹ s⁻¹.
For B2 the same measures were 15 nM, 0.0019 s⁻¹ and 130000 M⁻¹ s⁻¹.
In turn, B3 returned a Kd of 11 nM, a koff of 0.0015 s⁻¹ and a kon of 130000 M⁻¹ s⁻¹.

The target of the next experiment is T2, mouse CTLA4 extracellular region linked …. Description: SPR Biacore T200, 37C, antibody captured, ATP 100 uM.
Description: as §1, §2
Molecule B1 came in with a Kd of 18 nM.
On the same count and under the same terms, for B2 the value was 14 nM.
As for B3, binding was characterised by a dissociation constant (Kd) of 10 nM.

The next experiment concerns the target T1, human CTLA4. The experiment is described as above.
Description: as §1, §2
In turn, B1 had a Kd of 11 nM.
With B2, the dissociation constant Kd came out at 6.2 nM.
The same measure, in the same setting: in the case of B3 it was 5 nM.

A further experiment deals with T3, cynomolgus monkey CTLA4 …. Described as above.
Description: as §1, §2
Turning to B1, the Kd worked out at 21 nM.
As for B2, the affinity, expressed as Kd, was 10 nM.
The same measure, in the same setting: in the case of B3 it was 9.3 nM.

The target in the next experiment is T4, human C1q protein (Calbiochem) (human, UniProt P02745 23-245; P02746 28-253; P02747 29-245).
T4 construct: bought; also called hC1q
T4 sequence (P02745 23-245 limits assumed, chain 1 of 3): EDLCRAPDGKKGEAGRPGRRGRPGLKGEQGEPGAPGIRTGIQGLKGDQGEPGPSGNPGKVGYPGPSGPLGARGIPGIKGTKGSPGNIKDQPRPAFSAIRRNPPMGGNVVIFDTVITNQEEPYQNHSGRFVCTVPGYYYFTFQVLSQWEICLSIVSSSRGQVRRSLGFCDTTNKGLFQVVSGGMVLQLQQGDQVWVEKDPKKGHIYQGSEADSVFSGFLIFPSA
T4 sequence (P02746 28-253 limits assumed, chain 2 of 3): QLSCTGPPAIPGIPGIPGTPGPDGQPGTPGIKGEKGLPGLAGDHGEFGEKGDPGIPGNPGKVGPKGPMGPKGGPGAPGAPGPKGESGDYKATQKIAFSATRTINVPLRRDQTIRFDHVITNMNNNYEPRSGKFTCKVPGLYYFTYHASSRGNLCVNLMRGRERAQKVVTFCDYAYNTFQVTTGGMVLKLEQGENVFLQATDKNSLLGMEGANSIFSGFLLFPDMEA
T4 sequence (P02747 29-245 limits assumed, chain 3 of 3): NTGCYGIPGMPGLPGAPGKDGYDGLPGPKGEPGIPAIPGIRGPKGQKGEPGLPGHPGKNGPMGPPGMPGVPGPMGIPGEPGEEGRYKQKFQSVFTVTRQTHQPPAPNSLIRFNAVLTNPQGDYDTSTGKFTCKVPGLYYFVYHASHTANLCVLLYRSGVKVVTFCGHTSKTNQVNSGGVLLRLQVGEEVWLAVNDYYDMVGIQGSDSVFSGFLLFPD
Description: ELISA, antibody on the plate, hC1q 3 µg/mL.
Description: The antigen used was a human C1q protein (hC1q).
First, a 96-well maxisorp plate (Thermo fisher) was coated at 4° C. overnight with 50 μL of solutions containing each antibody prepared at 30, 10, 3, 1, 0.3, 0.1, and 0.03 μg/mL in PBS. Each well of the plate was washed with Wash buffer to remove the antibody not bound to the plate, and then the wells were blocked with 200 μL of Blocking/dilution Buffer at room temperature for 2 hours or longer. After the Blocking/dilution Buffer was removed from each well, hC1q (Calbiochem) prepared such that the final concentration was 3 μg/mL in Blocking/dilution Buffer was added at 50 μL per well. The plate was then allowed to stand at room temperature for 1 hour to allow hC1q to bind to the antibody within each well. After washing with Wash Buffer, 50 μL of an HRP-conjugated anti-hC1q antibody (AbDSerotec) diluted with Blocking/dilution Buffer was added to each well, and the plate was incubated while standing for 1 hour. After washing with Wash Buffer, TMB single solution (Invitrogen) was added. The color development reaction of the solution in each well was stopped by addition of Stop Buffer, and then the developed color was measured by absorbance at 450 nm and 690 nm.
In the case of B9, the binding result was “binds”.

Another experiment deals with T1, human CTLA4. Description: SPR Biacore T200, 37C, antibody captured, AMP 10 uM.
Description: as §1, §4
B1 came in with a Kd of 170 nM, a koff of 0.016 s⁻¹ and a kon of 94000 M⁻¹ s⁻¹.
As for B2, the dissociation constant Kd was determined as 82 nM, the koff came out at 0.014 s⁻¹ and the kon turned out to be 170000 M⁻¹ s⁻¹.
Consider B3, for which binding was put at a Kd of 55 nM, the dissociation rate constant (koff) amounted to 0.0097 s⁻¹ and the kon came out at 170000 M⁻¹ s⁻¹.

The target of the next experiment is T1, human CTLA4. Description: SPR, 37C, antibody captured by anti-mouse IgG, ATP 1 uM.
Description: as §3
As for B4, the Kd amounted to 45 nM.
Consider B5, for which the Kd is 58 nM.
Same read-out and setting: in the case of B6 it was 47 nM; in that of B7, 94 nM.
Still for that read-out and setting: for B8 the value was 67 nM.

The target of a further experiment is T1, human CTLA4. Nature of the experiment: SPR Biacore T200, 37C, antibody captured, ATP 1 uM. The source holds these as a separate data set.
Description: as §1
The molecule B1 returned a dissociation constant (Kd) of 200 nM.
On to B2, for which the affinity, expressed as Kd, was 98 nM.
Same read-out and setting: in the case of B3 it was 72 nM.
